Our source for the Kd values is paper PMC8417553 (2021).

For this assay, the target named is CCL11 (eotaxin-1) 24-97 (Homo sapiens, UniProt P51671). Briefly: fluorescence polarization. For orientation: In fluorescence polarisation assays a small probe gives low polarisation when free and higher when bound to something large.

By Kd is commonly meant a measure of binding affinity in units of concentration. High values mean weaker binding, low ones tighter binding.

CCL11 (eotaxin-1) 24-97, sequence (P51671 24-97): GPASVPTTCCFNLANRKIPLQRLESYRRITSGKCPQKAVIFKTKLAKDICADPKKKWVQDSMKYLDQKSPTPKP

B1: CCR3 (protein)
chain: MTTSLDTVETFGTTSYYDDVGLLCEKADTRALMAQFVPPLYSLVFTVGLLGNVVVVMILIKYRRLRIMTNIYLLNLAISDLLFLVTLPFWIHYVRGHNWVFGHGMCKLLSGFYHTGLYSEIFFIILLTIDRYLAIVHAVFALRARTVTFGVITSIVTWGLAVLAALPEFIFYETEELFEETLCSALYPEDTVYSWRHFHTLRMTIFCLVLPLLVMAICYTGIIKTLLRCPSKKKYKAIRLIFVIMAVFFIFWTPYNVAILLSSYQSILFGNDCERSKHLDLVMLVTEVIAYSHCCMNPVIYAFVGERFRKYLRHFFHRHLLMHLGRYIPFLPSEKLERTSSVSPSTAEPELSIVF
modifications: FITC-labeled CCL11, POPC SMALPs with 30% cholesterol
In turn, B1 gave a Kd of 0.03 µM.

B2: CCR3 (protein)
chain: B1 chain
modifications: FITC-labeled CCL11, proteoliposomes with 60% cholesterol
The molecule B2 displayed a dissociation constant (Kd) of 0.011 µM.

B3: CCR3 (protein)
chain: B1 chain
modifications: FITC-labeled CCL11, proteoliposomes with 40% cholesterol
For B3, the Kd worked out at 0.02 µM.
